Source: US20230002480A1

How the values were obtained:
Assay in all cases: cell-based or functional assay
[1] = biological target: HIV-1 Env of pseudovirus SC422661.8 (clade B) (HIV-1)
[2] = biological target: HIV-1 Env of pseudovirus ZM197M.PB7 (clade C) (HIV-1)
[3] = biological target: HIV-1 Env of pseudovirus CNE17 (clade BC) (HIV-1)
[4] = biological target: HIV-1 Env of pseudovirus 249M B10 (clade C (T/F)) (HIV-1)
[5] = biological target: HIV-1 Env of pseudovirus WITO4160.33 (clade B) (HIV-1)
[6] = biological target: HIV-1 Env of pseudovirus CAP45.2.00.G3 (clade C) (HIV-1)
[7] = biological target: HIV-1 Env of pseudovirus SC05_8C11_2344 (clade B (T/F)) (HIV-1)
[8] = biological target: HIV-1 Env of pseudovirus RHPA4259.7 (clade B) (HIV-1)
[9] = biological target: HIV-1 Env of pseudovirus Ce703010054_2A2 (clade C (T/F)) (HIV-1)
[10] = biological target: HIV-1 Env of pseudovirus 6244_13_B5_4576 (clade B (T/F)) (HIV-1)
[11] = biological target: HIV-1 Env of pseudovirus 1056_10_TA11_1826 (clade B (T/F)) (HIV-1)
[12] = biological target: HIV-1 Env of pseudovirus 1054_07_TC4_1499 (clade B (T/F)) (HIV-1)
[13] = biological target: HIV-1 Env of pseudovirus Q259.d2.17 (clade A) (HIV-1)
[14] = biological target: HIV-1 Env of pseudovirus Du172.17 (clade C) (HIV-1)
[15] = biological target: HIV-1 Env pseudovirus X1193_c1 (HIV-1)
[16] = biological target: HIV-1 Env pseudovirus R3265.c06 (HIV-1)
[17] = biological target: HIV-1 Env pseudovirus 3415.v1.c1 (HIV-1)
[18] = biological target: HIV-1 Env pseudovirus T278-50 (HIV-1)
[19] = biological target: HIV-1 Env pseudovirus X1254_c3 (HIV-1)
[20] = biological target: HIV-1 Env pseudovirus 620345.c01 (HIV-1)
[21] = biological target: HIV-1 Env pseudovirus 3817.v2.c59 (HIV-1)
[22] = biological target: HIV-1 Env pseudovirus T251-18 (HIV-1)
[23] = biological target: HIV-1 Env pseudovirus C4118.c09 (HIV-1)
[24] = biological target: HIV-1 Env pseudovirus 6811.v7.c18 (HIV-1)
[25] = biological target: HIV-1 Env pseudovirus 191084 B7-19 (HIV-1)
[26] = biological target: HIV-1 Env pseudovirus T257-31 (HIV-1)

Substance: N49P7.2 (antibody)
- IC50 [1]: 0.119 µg/mL
- IC80 [1]: 0.564 µg/mL
- MPI [1]: 100
- IC50 [2]: 0.223 µg/mL
- IC80 [2]: 1.37 µg/mL
- MPI [2]: 100
- IC50 [3]: 0.376 µg/mL
- IC80 [3]: 1.24 µg/mL
- MPI [3]: 100
- IC50 [4]: 0.095 µg/mL
- IC80 [4]: 0.349 µg/mL
- MPI [4]: 100
- IC50 [5]: 0.051 µg/mL
- IC80 [5]: 0.215 µg/mL
- MPI [5]: 100
- IC50 [6]: 0.162 µg/mL
- IC80 [6]: 2.49 µg/mL
- MPI [6]: 95
- IC50 [7]: 0.326 µg/mL
- IC80 [7]: 1.14 µg/mL
- MPI [7]: 100
- IC50 [8]: 0.1 µg/mL
- IC80 [8]: 0.289 µg/mL
- MPI [8]: 100
- IC50 [9]: 0.124 µg/mL
- IC80 [9]: 0.576 µg/mL
- MPI [9]: 100
- IC50 [10]: 0.331 µg/mL
- IC80 [10]: 1.04 µg/mL
- MPI [10]: 100
- IC50 [11]: 0.114 µg/mL
- IC80 [11]: 0.771 µg/mL
- MPI [11]: 100
- IC50 [12]: 2.04 µg/mL
- IC80 [12]: 10.7 µg/mL
- MPI [12]: 99
- IC50 [13]: 38.5 µg/mL
- IC80 [13]: > 50 µg/mL
- MPI [13]: 54
- IC50 [14]: 0.29 µg/mL
- IC80 [14]: 1.08 µg/mL
- MPI [14]: 100

Substance: N49P9 (antibody)
- IC50 [15]: 0.025 µg/mL
- IC80 [15]: 0.081 µg/mL
- MPI [15]: 100
- IC50 [16]: 0.135 µg/mL
- IC80 [16]: 0.812 µg/mL
- MPI [16]: 100
- IC50 [17]: 0.137 µg/mL
- IC80 [17]: 0.502 µg/mL
- MPI [17]: 100
- IC50 [18]: > 50 µg/mL
- IC80 [18]: > 50 µg/mL
- MPI [18]: 25
- IC50 [19]: 0.04 µg/mL
- IC80 [19]: 0.104 µg/mL
- MPI [19]: 100
- IC50 [20]: > 50 µg/mL
- IC80 [20]: > 50 µg/mL
- MPI [20]: 9
- IC50 [21]: 1.09 µg/mL
- IC80 [21]: 5.86 µg/mL
- MPI [21]: 100
- IC50 [22]: 0.147 µg/mL
- IC80 [22]: 0.517 µg/mL
- MPI [22]: 100
- IC50 [23]: 0.072 µg/mL
- IC80 [23]: 0.2 µg/mL
- MPI [23]: 100
- IC50 [24]: 0.249 µg/mL
- IC80 [24]: 1.2 µg/mL
- MPI [24]: 99
- IC50 [25]: 0.042 µg/mL
- IC80 [25]: 0.129 µg/mL
- MPI [25]: 100
- IC50 [26]: 0.216 µg/mL
- IC80 [26]: 0.821 µg/mL
- MPI [26]: 100

Substance: N49P9.1 (antibody)
- IC50 [15]: 0.042 µg/mL
- IC80 [15]: 0.15 µg/mL
- MPI [15]: 100
- IC50 [16]: 0.469 µg/mL
- IC80 [16]: 1.62 µg/mL
- MPI [16]: 100
- IC50 [17]: 0.21 µg/mL
- IC80 [17]: 1.37 µg/mL
- MPI [17]: 100
- IC50 [18]: > 50 µg/mL
- IC80 [18]: > 50 µg/mL
- MPI [18]: 5
- IC50 [19]: 0.101 µg/mL
- IC80 [19]: 0.278 µg/mL
- MPI [19]: 100
- IC50 [20]: > 50 µg/mL
- IC80 [20]: > 50 µg/mL
- MPI [20]: 7
- IC50 [21]: 1.35 µg/mL
- IC80 [21]: 8.26 µg/mL
- MPI [21]: 95
- IC50 [22]: 0.127 µg/mL
- IC80 [22]: 0.352 µg/mL
- MPI [22]: 100
- IC50 [23]: 0.062 µg/mL
- IC80 [23]: 0.218 µg/mL
- MPI [23]: 100
- IC50 [24]: 0.398 µg/mL
- IC80 [24]: 1.76 µg/mL
- MPI [24]: 97
- IC50 [25]: 0.097 µg/mL
- IC80 [25]: 0.259 µg/mL
- MPI [25]: 100
- IC50 [26]: 0.508 µg/mL
- IC80 [26]: 1.82 µg/mL
- MPI [26]: 100

Substance: N49P11 (antibody)
- IC50 [1]: 0.729 µg/mL
- IC80 [1]: 3.49 µg/mL
- MPI [1]: 100
- IC50 [2]: 0.303 µg/mL
- IC80 [2]: 1.59 µg/mL
- MPI [2]: 100
- IC50 [3]: 6.68 µg/mL
- IC80 [3]: 25.6 µg/mL
- MPI [3]: 100
- IC50 [4]: 3.54 µg/mL
- IC80 [4]: 12.9 µg/mL
- MPI [4]: 100
- IC50 [5]: 4.86 µg/mL
- IC80 [5]: 13.2 µg/mL
- MPI [5]: 100
- IC50 [6]: 5.25 µg/mL
- IC80 [6]: 24 µg/mL
- MPI [6]: 100
- IC50 [7]: 5.42 µg/mL
- IC80 [7]: 20.5 µg/mL
- MPI [7]: 100
- IC50 [8]: 0.202 µg/mL
- IC80 [8]: 0.956 µg/mL
- MPI [8]: 100
- IC50 [9]: 1.42 µg/mL
- IC80 [9]: 7.51 µg/mL
- MPI [9]: 100
- IC50 [10]: 1.12 µg/mL
- IC80 [10]: 5.45 µg/mL
- MPI [10]: 100
- IC50 [11]: 4.77 µg/mL
- IC80 [11]: 14.2 µg/mL
- MPI [11]: 100
- IC50 [12]: 2.92 µg/mL
- IC80 [12]: 13.1 µg/mL
- MPI [12]: 100
- IC50 [13]: 8.42 µg/mL
- IC80 [13]: 21.4 µg/mL
- MPI [13]: 100
- IC50 [14]: 5.65 µg/mL
- IC80 [14]: 17.9 µg/mL
- MPI [14]: 100

Substance: N49P18.1 (antibody)
- IC50 [1]: 14.1 µg/mL
- IC80 [1]: 43.4 µg/mL
- MPI [1]: 84
- IC50 [2]: 12.5 µg/mL
- IC80 [2]: 49.8 µg/mL
- MPI [2]: 84
- IC50 [3]: 39.7 µg/mL
- IC80 [3]: > 50 µg/mL
- MPI [3]: 56
- IC50 [4]: 5.71 µg/mL
- IC80 [4]: 23.1 µg/mL
- MPI [4]: 94
- IC50 [5]: 11 µg/mL
- IC80 [5]: 37.6 µg/mL
- MPI [5]: 87
- IC50 [6]: 5.14 µg/mL
- IC80 [6]: 33.1 µg/mL
- MPI [6]: 88
- IC50 [7]: 17.3 µg/mL
- IC80 [7]: > 50 µg/mL
- MPI [7]: 79
- IC50 [8]: 4.34 µg/mL
- IC80 [8]: 21.4 µg/mL
- MPI [8]: 98
- IC50 [9]: 4.15 µg/mL
- IC80 [9]: 11.6 µg/mL
- MPI [9]: 98
- IC50 [10]: 33.4 µg/mL
- IC80 [10]: > 50 µg/mL
- MPI [10]: 61
- IC50 [11]: 30.5 µg/mL
- IC80 [11]: > 50 µg/mL
- MPI [11]: 62
- IC50 [12]: > 50 µg/mL
- IC80 [12]: > 50 µg/mL
- MPI [12]: 0
- IC50 [13]: > 50 µg/mL
- IC80 [13]: > 50 µg/mL
- MPI [13]: 37
- IC50 [14]: 6.52 µg/mL
- IC80 [14]: 21.3 µg/mL
- MPI [14]: 92
